The chains are these.
B1: TPTE2 peptide 92-107 (Phosphatidylinositol 3,4,5-trisphosphate 3-phosphatase TPTE2), 16-mer library wild type / TLN1 PTB (TLN1 Phosphotyrosine-binding (PTB) domain, residues 309-401) (parent complex)
chain 1: LADLIFTDSKLYIPLE
chain 2: GVSFFLVKEKMKGKNKLVPRLLGITKECVMRVDEKTKEVIQEWNLTNIKRWAASPKSFTLDFGDYQDGYYSVQTTEGEQIAQLIAGYIDIILK

The variants in this test derive from B1. Nature of the test: proteomic peptide phage display deep mutational scan (ProP-PD DMS): M13 P8 16-mer library selected against immobilised GST-tagged bait for four days (rounds), NGS of the eluted pools per day and pseudo-replica; bait immobilised on MaxiSorp plates (10 µg), library pre-cleared on GST, 2 h binding at 4 °C, five washes; one round per day, days 1-4; value from days 2 and 3.
As to chain 1 F6W, the screen value is 0.000583 average fractional NGS count over selection days 2 and 3 (reads of this peptide / all reads for the bait, averaged over …. The figure for chain 1 L15M is 0.00539 average fractional NGS count over selection days 2 and 3 (reads of this peptide / all reads for the bait, averaged over …; for chain 1 L15W it is 0.000732 average fractional NGS count over selection days 2 and 3 (reads of this peptide / all reads for the bait, averaged over …; for chain 1 L15S it is 0.000436 average fractional NGS count over selection days 2 and 3 (reads of this peptide / all reads for the bait, averaged over …. The figure for chain 1 L15N is 0.000216 average fractional NGS count over selection days 2 and 3 (reads of this peptide / all reads for the bait, averaged over …; for chain 1 L15Q it is 0.00188 average fractional NGS count over selection days 2 and 3 (reads of this peptide / all reads for the bait, averaged over ….

With chain 1 L15H, the screen value is 0.00102 average fractional NGS count over selection days 2 and 3 (reads of this peptide / all reads for the bait, averaged over …. The same measure for chain 1 L15F: 0.000576 average fractional NGS count over selection days 2 and 3 (reads of this peptide / all reads for the bait, averaged over …. The figure for chain 1 L15D is 0.000238 average fractional NGS count over selection days 2 and 3 (reads of this peptide / all reads for the bait, averaged over …; for chain 1 L15V it is 0.0032 average fractional NGS count over selection days 2 and 3 (reads of this peptide / all reads for the bait, averaged over …; for chain 1 L15K it is 0.000159 average fractional NGS count over selection days 2 and 3 (reads of this peptide / all reads for the bait, averaged over ….

For the variant chain 1 L15Y, the screen value is 0.00117 average fractional NGS count over selection days 2 and 3 (reads of this peptide / all reads for the bait, averaged over …. The figure for chain 1 L11V is 0.00254 average fractional NGS count over selection days 2 and 3 (reads of this peptide / all reads for the bait, averaged over …; for chain 1 L11M it is 0.000677 average fractional NGS count over selection days 2 and 3 (reads of this peptide / all reads for the bait, averaged over …. The figure for chain 1 L11H is 0.000165 average fractional NGS count over selection days 2 and 3 (reads of this peptide / all reads for the bait, averaged over ….

For chain 1 L11G, the screen value is 0.000473 average fractional NGS count over selection days 2 and 3 (reads of this peptide / all reads for the bait, averaged over …. Turning to chain 1 E16L, the screen value is 0.000229 average fractional NGS count over selection days 2 and 3 (reads of this peptide / all reads for the bait, averaged over ….

With chain 1 E16M, the screen value is 0.0125 average fractional NGS count over selection days 2 and 3 (reads of this peptide / all reads for the bait, averaged over …. The figure for chain 1 E16H is 0.00501 average fractional NGS count over selection days 2 and 3 (reads of this peptide / all reads for the bait, averaged over …; for chain 1 E16D it is 0.00467 average fractional NGS count over selection days 2 and 3 (reads of this peptide / all reads for the bait, averaged over …. The same measure for chain 1 E16I: 0.000286 average fractional NGS count over selection days 2 and 3 (reads of this peptide / all reads for the bait, averaged over …; for chain 1 E16S: 0.000917 average fractional NGS count over selection days 2 and 3 (reads of this peptide / all reads for the bait, averaged over …; for chain 1 E16Y: 0.00177 average fractional NGS count over selection days 2 and 3 (reads of this peptide / all reads for the bait, averaged over ….

For the variant chain 1 E16Q, the screen value is 0.000507 average fractional NGS count over selection days 2 and 3 (reads of this peptide / all reads for the bait, averaged over …. The same measure for chain 1 E16A: 0.00143 average fractional NGS count over selection days 2 and 3 (reads of this peptide / all reads for the bait, averaged over …. The same measure for chain 1 E16F: 0.000466 average fractional NGS count over selection days 2 and 3 (reads of this peptide / all reads for the bait, averaged over …. The figure for chain 1 E16V is 0.0105 average fractional NGS count over selection days 2 and 3 (reads of this peptide / all reads for the bait, averaged over …. Consider chain 1 E16G, for which the screen value was 0.000982 average fractional NGS count over selection days 2 and 3 (reads of this peptide / all reads for the bait, averaged over …. The same measure for chain 1 E16N: 0.00152 average fractional NGS count over selection days 2 and 3 (reads of this peptide / all reads for the bait, averaged over …; for chain 1 I13E: 0.000182 average fractional NGS count over selection days 2 and 3 (reads of this peptide / all reads for the bait, averaged over …; for chain 1 I13L: 0.000788 average fractional NGS count over selection days 2 and 3 (reads of this peptide / all reads for the bait, averaged over …. The same measure for chain 1 I13K: 0.0008 average fractional NGS count over selection days 2 and 3 (reads of this peptide / all reads for the bait, averaged over …. The figure for chain 1 I13F is 0.000135 average fractional NGS count over selection days 2 and 3 (reads of this peptide / all reads for the bait, averaged over …; for chain 1 I13R it is 0.00065 average fractional NGS count over selection days 2 and 3 (reads of this peptide / all reads for the bait, averaged over …. As to chain 1 I13T, the screen value was 0.000348 average fractional NGS count over selection days 2 and 3 (reads of this peptide / all reads for the bait, averaged over …. For the variant chain 1 I13V, the screen value is 0.00758 average fractional NGS count over selection days 2 and 3 (reads of this peptide / all reads for the bait, averaged over …. Take chain 1 A2K: the screen value was 0.000711 average fractional NGS count over selection days 2 and 3 (reads of this peptide / all reads for the bait, averaged over …. The same measure for chain 1 A2Q: 0.000351 average fractional NGS count over selection days 2 and 3 (reads of this peptide / all reads for the bait, averaged over …; for chain 1 A2M: 0.000697 average fractional NGS count over selection days 2 and 3 (reads of this peptide / all reads for the bait, averaged over …; for chain 1 A2I: 0.000259 average fractional NGS count over selection days 2 and 3 (reads of this peptide / all reads for the bait, averaged over …. The same measure for chain 1 A2T: 0.00695 average fractional NGS count over selection days 2 and 3 (reads of this peptide / all reads for the bait, averaged over …; for chain 1 A2S: 0.000833 average fractional NGS count over selection days 2 and 3 (reads of this peptide / all reads for the bait, averaged over …; for chain 1 A2Y: 0.00133 average fractional NGS count over selection days 2 and 3 (reads of this peptide / all reads for the bait, averaged over ….

In the case of chain 1 A2D, the screen value was 0.0012 average fractional NGS count over selection days 2 and 3 (reads of this peptide / all reads for the bait, averaged over …. The figure for chain 1 A2R is 0.00121 average fractional NGS count over selection days 2 and 3 (reads of this peptide / all reads for the bait, averaged over …; for chain 1 A2P it is 0.000416 average fractional NGS count over selection days 2 and 3 (reads of this peptide / all reads for the bait, averaged over …. The same measure for chain 1 A2G: 0.00214 average fractional NGS count over selection days 2 and 3 (reads of this peptide / all reads for the bait, averaged over ….

Turning to chain 1 A2N, the screen value is 0.000208 average fractional NGS count over selection days 2 and 3 (reads of this peptide / all reads for the bait, averaged over …. Regarding chain 1 A2H, the screen value is 0.00143 average fractional NGS count over selection days 2 and 3 (reads of this peptide / all reads for the bait, averaged over …. With chain 1 A2E, the screen value is 0.000377 average fractional NGS count over selection days 2 and 3 (reads of this peptide / all reads for the bait, averaged over …. Regarding chain 1 D3P, the screen value was 0.000181 average fractional NGS count over selection days 2 and 3 (reads of this peptide / all reads for the bait, averaged over ….

Take chain 1 D3Q: the screen value is 0.000216 average fractional NGS count over selection days 2 and 3 (reads of this peptide / all reads for the bait, averaged over …. The same measure for chain 1 D3T: 0.00148 average fractional NGS count over selection days 2 and 3 (reads of this peptide / all reads for the bait, averaged over …; for chain 1 D3N: 0.000465 average fractional NGS count over selection days 2 and 3 (reads of this peptide / all reads for the bait, averaged over …; for chain 1 D3S: 0.000257 average fractional NGS count over selection days 2 and 3 (reads of this peptide / all reads for the bait, averaged over …. Regarding chain 1 D3G, the screen value is 0.000214 average fractional NGS count over selection days 2 and 3 (reads of this peptide / all reads for the bait, averaged over …. The same measure for chain 1 L4V: 0.0013 average fractional NGS count over selection days 2 and 3 (reads of this peptide / all reads for the bait, averaged over …; for chain 1 L4Q: 0.000755 average fractional NGS count over selection days 2 and 3 (reads of this peptide / all reads for the bait, averaged over ….

Take chain 1 L4Y: the screen value was 0.00693 average fractional NGS count over selection days 2 and 3 (reads of this peptide / all reads for the bait, averaged over …. For chain 1 L4A, the screen value was 0.000153 average fractional NGS count over selection days 2 and 3 (reads of this peptide / all reads for the bait, averaged over ….

Turning to chain 1 L4S, the screen value was 0.00023 average fractional NGS count over selection days 2 and 3 (reads of this peptide / all reads for the bait, averaged over …. The same measure for chain 1 L4P: 0.000281 average fractional NGS count over selection days 2 and 3 (reads of this peptide / all reads for the bait, averaged over …; for chain 1 L4I: 0.00221 average fractional NGS count over selection days 2 and 3 (reads of this peptide / all reads for the bait, averaged over …; for chain 1 L4G: 0.000192 average fractional NGS count over selection days 2 and 3 (reads of this peptide / all reads for the bait, averaged over …. The figure for chain 1 L4F is 0.000915 average fractional NGS count over selection days 2 and 3 (reads of this peptide / all reads for the bait, averaged over …. The figure for chain 1 L4T is 0.00113 average fractional NGS count over selection days 2 and 3 (reads of this peptide / all reads for the bait, averaged over …. In the case of chain 1 L4H, the screen value is 0.000467 average fractional NGS count over selection days 2 and 3 (reads of this peptide / all reads for the bait, averaged over …. The figure for chain 1 P14W is 0.000152 average fractional NGS count over selection days 2 and 3 (reads of this peptide / all reads for the bait, averaged over …; for chain 1 P14G it is 0.000463 average fractional NGS count over selection days 2 and 3 (reads of this peptide / all reads for the bait, averaged over ….

chain 1 I5F: the screen value was 0.000696 average fractional NGS count over selection days 2 and 3 (reads of this peptide / all reads for the bait, averaged over ….

In the case of chain 1 I5R, the screen value was 0.0019 average fractional NGS count over selection days 2 and 3 (reads of this peptide / all reads for the bait, averaged over ….

Consider chain 1 I5V, for which the screen value was 0.000758 average fractional NGS count over selection days 2 and 3 (reads of this peptide / all reads for the bait, averaged over …. The same measure for chain 1 I5K: 0.000454 average fractional NGS count over selection days 2 and 3 (reads of this peptide / all reads for the bait, averaged over …; for chain 1 I5M: 0.000604 average fractional NGS count over selection days 2 and 3 (reads of this peptide / all reads for the bait, averaged over …; for chain 1 I5D: 0.0016 average fractional NGS count over selection days 2 and 3 (reads of this peptide / all reads for the bait, averaged over ….

The record behind these values is article PMC12102759 (2025).
